Test results taken from the DeepSol protein solubility set.

Test: soluble on expression in E. coli; label from the status in PepcDB or PDB records
In the case of “GPGSMGSKYDRVKVKVHLDDEHYYILSRFILSKMLTACKLPTTAAVCVSLALKKSLVDQERLDISQRELEAATLSTMAQHGYGAAFTRLLPVMTRFFIERTPLIVFMAGSGCCGKTSMARSLSVRLNTHNIVSTDLLLDILRATHHAYPSSALRGDLVELSDERVLPCVSEHSLWLSDTLAVDDFVRLWRTLTRAIRSLVEGEVEKALVEGKVLIVEGSLIDLSLYHNYLLDSFQSQRGVIAVAFHISSDEMSRNFAVERLVSTYRSVLPLSYTDNYNGALEWVQCRLRAIEGEHLRVLRGDSSAMQLHCIDDSLCDPATGDSTSVRDLSESYSNETSSTCDTRQLRLSQDNAEIVPVYGVTNSMAASSRVCESMHGLILDRIISALKQKGPLNLEHGNVVWCQAMDSEYMSPTNDT”, the “soluble on expression in E. coli” value is reported as “not soluble”.
With “GPGSMKKFMLNTKASLGLVGEKTVDEDYNKRSASLKALNEALNEYSTAMDKAKHAMREVMHSLGKASKAFEKLNSGSCIPEPLKDFSEDFKKAIEHLQQYALQEFMNTMETTVIKTGHAIRADYEECVRVDQQRQKTVNEYDVYRSAVDKKETEYAKKGKDLKESKTYEEDTKTRDELKADYEASDKLFKSSHDALESNVVSKGRLCMREFFCCTSEFLSALSTEMKRLHEKSLLLGA” the “soluble on expression in E. coli” value was “not soluble”.
For “GPGSMKKTVAAAPPKSPAPAKSKISVTRTGVNTTYPMPPPMPEKNYAPFFAEGCQTIAASKASMPPVQPASPLPPMHSAPPTASVVSNSIPPSSPATAPGERSPAVAARSVPTRFSPATVPRHHMNPNATEFMPGRRNGPDGGLEALPTSTADMELAKTPAGAAAAAVHAPSLPGAVRRSLQNSPIIQPSRLSVKSASEIEAISKNSALNAAAAAYVPQRTLARVVLTQPSPLALAPSEDPAKNNIEMMLDDLWCLFYLPTTLGENIKEEDYNPTLVFRVDSILTFWRVVNNIAAPSELQLSTLYLFRDGIDPKWEDPANRDGGIVKVKATAAQVDEAWELLLCRTIGDSWSPSVRETVNGVVLKVRERAYWLELWVTKNSSALQKDLAELWHPILGASFATTYLTHAMMQERSHAAAALAAEKQKKNRRRY”, the “soluble on expression in E. coli” value was “soluble”.
In the case of “GPGSMKLLKFVNSDAPHTLADVQLRNQRLWFPCRHGNAAVAAKSWTLTAASPASVSGGYWLLDDDSQPICEITDVLLALPETAANAAGSSGTFAPRGVTDKDVDGIDFRSKMGRQMERERATYGATSKTATKSARTMMNAEEMTEKKNERMKREREAVAEAIEDNDASVMEPRKKERKHSKK”, the “soluble on expression in E. coli” value is reported as “soluble”.
In the case of “GPGSMLLMPFPLVPSPPPTRLSGHLTPVALVGVLVCASPRCAPKPRPRPWNASHTHTHTHTSPRPLIAHTVSLCVSVVRKHLFFFRRFLRLPPSPNRKRNQLTGAAMLTRRAVSSAVGAAMVTSSSVSMQRRYDHDRWYGHALELDTHNYKFNGEPPSWMKTRAKTEEETSFAKSVLPHIDFASSYECLLFDADRLNTNLNRKEFGNEIKYRLEKQANTVARAQQLLRDKKAGTGPDAEKVENTLIARIFDEEHVQAEMKYVKCIRANELAEDNRLDILPGGSPNSLREKTRWNLNTELHPADRAEIGARLTAWLPEKYHIVYFDDFQTVAANDATARKEMLEIVESVQKEYTAEAKEGGYESDLKEAVAELMDDVDPTRTITMEAIKSCKDLQQLEDWSRQVHEYNGDDRIIAIYARAAEITKNVEHQALVRQMREWRKLATKNESKL”, the “soluble on expression in E. coli” value is reported as “not soluble”.
For “GPGSMLRGCAAACGQCRESASAVYGQALWLLLRPWTRSPSLPSSTHARLGLRRALGTVTSSLSSSSSCATVHHPTRWVSRKSIEEQLPSNIKVDPNASATAGRENEGLGRDAFSSGINGIYGNRAESAMRGMLGPQGQADARESRAVPILGRASVQGTKYTLDRSTVFEHWRFHCSEPVGWHLSKLGSTTCKMVNDVNEAVESLQLQIIKGCNVFEIDGAASEVHQSIARGIYEALQAFELDRSGFVMVARCGLIKQPRFQDEITRVEASNTAAVRNRIIPIFERYKASSLPSTSLKSGFRISELDDSQLARLNLRRVDRTTAAGLSPDWLDAFFTNVAYNTRLECIDVLLLEGMHTLFDGRPDEHVDDDILQLFVYLERQVKQGVLQYYGVCSPHLAPPVPRNYPEMPPDALVPDKYRTPPKEPATINLYRLMALAERAGGADHHFRFVQYPFNLTQHQAISSPLPYDANHTLATLCKALGLTALGYSPLEAPNLMQLPERYHNFPMEADLKALRMNFFTVCERSVLKEMEIKDTIDKGPDTLPPLEHLFVASVYLAAQRQFTNLFFFTDWANYYMTPRFRRAMTRFKEASSADLKEWAKQYEQLISDLLRMRQRMFQHKHGKQAGLVNMAIDYVSPTLARCPMLNQKAINFATYGCNVLLCGFHVSRYFHEATELNPAKDGNLPIPEEELLALCSAETVSYANVSPPHPYMLEPLMGEGKISKQPSKGAAYLVRIDPQNPKFPDIPEELQTGDSDGEAPVSADGATAALHKDEAPEKAVKE”, the “soluble on expression in E. coli” value was “not soluble”.
For “GPGSMLWVDRYRPKTLKDVELYPELKEVLTRLSKAQDLPHLLFYGPSGSGKKTRAMAMLHEIYGPSVFSVRLEHKSVQVSDSKVVDIATLSSPHHIDINPSDAGNYDRAIVMQMIREIAQTVPLHSTSGNRKNVPYKVVVLNEVDKMSRTAQHALRRTMEKYMNTCRLFLLCNSTSRLIPPLRSRCLGIRVASHSKDNLKLAVQRVCEGEGRPLPSVAFLNSLALRSDGNLRRGLLMLEASALAKVDWSGNGAAIPQADWKLFLDEISHDIVAEQTPKRLHEVRLKFYDLLAQCISGETILKTLVDSLLAAVAPALQRPLIELAAKYDHNMKLGTKPILHLEAFVAAVMKLIKQQ”, the “soluble on expression in E. coli” value was “not soluble”.
In the case of “GPGSMMDCDHLLRLGMTAKKILENGKGILAADETPKTLGRRFEKLGITNTEENRRKFREILFSTKGIERYIGGVILNQETFEQTSGSGVPLTELLKKKGIEIGIKLDKGLIDYKEKEKISVGLEDLDLRCKSSAFKDATFAKWRSLFYFYDGIPSEDCINENCSILAKYAIICQKNGLVPIVEPEVFLEGDYSMKRSYEVTRQILSTLMKYLNYELVYIPGVLIKASYVTSGQLSNEKYTPKKVATFTLRALLSTIPCGIPGIVFLSGGHGSEDAIGFLNAINMERGCRTWSLSFSFARALTDGVLETWRGDDSNIEEAQKILLETSFKACRGAEGKLWDQE”, the “soluble on expression in E. coli” value is reported as “soluble”.
In the case of “GPGSMMEPTRNAEYSKQEYWDRRYTEEEHYDWFPSVYPMCVAAAFETVEAVYRVQRSTGAFNGTLKVLHLGTGNSTLCADIRATYEAKYPTEDSRPYRLVQAATDYSAVVIDRMQAKYGLAHPLEDVHWVVADIRDLSRVREQFGPFFDVVLDKGTMDALQADKANQNMEDDIERMLCEVSRCVEGGAGTRVYRVFVQITWEIPYLRLYYTTRNATHTFAWGTNVTYRFLGESDMYRVYTYEVSPPSSE”, the “soluble on expression in E. coli” value is reported as “soluble”.
In the case of “GPGSMMGTDTEKGLYLHAAWDLFERLRPGQQLCVSFFEIYCNSLYDLLNHRHPIVLREDANRRVNICGVTWRTVATVEELWQLVRSGMEQRRTGTTTANEHSSRSHAVLSLRITDSENPDFTGSVNFVDLAGSERAADTAAHDRLTRLEGAEINKSLLALKECIRALDEKKKHVPFRGSRLTEVLRASFTGNSKTVMIAAVSPSSVNHEHTSNTLRYAFRVKGLSVPSVWPSTARNAPRLCLPVARSRSRAAAAVAAANEPTSAPAATECSFNSKHTDDAGSPRRPRHARRRRHAYKTAHEPQDEIGISDTNESCTSDTATESPRPRMQITQKACRHQVGRNSTGSSTSAKRHKTCCLVPYMVESLSQRRTRHRTRKERLPLPRAACSIGESSDLLLANASGTDSKSRALAEVILPHVKGATRHPSSLIAVDVAALEQRLTLQIIAQLRLDLGQQLEEVLMEKDTIISALRSENEKLRQALDKTGNVEQFYGGSPCDGEVQKRPAVLPALLYPSSPSILQEQLSSGVSTASVGDEPPLRVLSE”, the “soluble on expression in E. coli” value is reported as “not soluble”.
With “GPGSMMTEATTTPVETPIVCNIRDAAGLEGKLVTFKGWAYHIRKARKTLIFVELRDGSGYCQCVIFGKELCEPEKVKLLTRECSLEITGRLNAYAGKNHPPEIADILNLEMQVTEWKVIGESPIDLENIINKDSSIPQKMQNRHIVIRSEHTQQVLQLRSEIQWYFRKYYHDNHFTEIQPPTIVKTQCEGGSTLFKLQYFNEPAYLTQSSQLYLESVIASLGKSFCMLSSYRAEQSRTVRHLAEYLHLEAELPFISFEDLLNHLEDLVCTVIDNVMAVHGDKIRKMNPHLKLPTRPFKRMTYADAIKYCNDHGILNKDKPFEYGEDISEKPERQMTDEIGCPIFMIHFPSKMKAFYMSKVPGHPDLTESVDLLMPGVGEIVGGSMRIWNYDELMGAYKANGLNPDPYYWYTQQRKYGSCPHGGYGLGVERLVMWLLGEDHIRKVCLYPRYLERCEP” the “soluble on expression in E. coli” value was “soluble”.
For “GPGSMNHLAGKIHVVQTPEEGRRFSLEQVVLPVLGNGAERLVSPDGKMREASERLAQELQIEGLMKMKAAPPATYRRLVVRPRDFTYCLFDDERGWCWESNNEAPIRPQLWEDQEGIMRQLSPLSVATGKNIIARNGIRGAEQRSHFLKAARRSGMTCVLRMTLPRGSAVTSALREAFQFATLDPGVIFHLLR”, the “soluble on expression in E. coli” value was “not soluble”.
In the case of “GPGSMPPKKGKKLKKKVKLQVPPQYEEQISKEPVSDPPTSQQSITSLPISVVEAALAVEESPEEDIVTFGAEALNRLLSMRHPQQIAADLTRSLSSLRQRLAQLEMEWLGFESSAVGSTYACRARDQKDKLEHEVRKTEKMTRHLILLGRVLDRIFELRTSVFDTERTAMEAEVEELTKRVEKNDEEIRSCYINRISLLHRYWVWRTLQELGDMTVGRTFAEELARGPRYRSIAIQNRILSDTLERQLEWLQRFLEKEEVFCGRVRQLERFVEEFTDMNDALEEVLTCRVCNLLFEDPVVFWPCGHSFCLQCFDSLSVAPSLFRCPLCGSMGSEGYVHNLLLSESVAKWMFKDACYADVHGALSLVRLHLSKFRRNIISSRMEQLEERLTAERGRELASDTLDDMDIVYRAY”, the “soluble on expression in E. coli” value is reported as “not soluble”.
In the case of “GPGSMRAEKVTVSPAGEGAAPLFVFGYGSILWKQQFEYLRALPCCVHGYKRVFYQGSTDHRGVPARPGRVVTLLTCGDPEAWVGGVAFELPVEEEKREKILAQLDDRESGGYEREEVTLYDIKTHERLHLPPGAVCLCYRATEDNPEYLGEAKDEAIAEQILSCEGLSGPNSEYLFKLAEALRKLESADQHVFAVETAALHIMKAQNVPE”, the “soluble on expression in E. coli” value is reported as “soluble”.
With “GPGSMRAVVFSDVASAELREHIRAIASTSYAEVVYVDVSESAEADLATAWHTRYGGASHSPPAARDELDDLKNTFVCYLTEQKTIEDSDVVYAVFVAEVHTLVLTPSVTLTPLMHATADGSVSARKAAIESFFSVAPSSSSAEVIVVEGGDGAGKETQTGLLVRRVHAAGDEVHALDFPNEKGLYGGLVRAVLSGKKGPISELNPQLFSFLYSLNRFGCARQLHFWLRRGSSVVLDRYYTANFGHQASKLPPEEREAFISDLEFMEVEWLGLPRATYVLYLDLPPAVALEAMRQDATRKQLDIHETAGSDYKERVRQTYRWCCEHLPGWHHIECFSDDGRRLTREEVHASITSHLRDAGSRAIGAPS” the “soluble on expression in E. coli” value was “not soluble”.
For “GPGSMRCIGMMEELVAEGCSAIKSRHDKTNEELGDLRLQVHQEYLEAFRRLYKTLGQLVYKKEKRLEEIDRNIRTTHIQLEFAIETFDPNAKKHSDAKKELYKLRAQVEEELEMLKDKMAQALEMFGPTEDALNQAGIEFVHPAEEVEDGNLTRRSKMVEYRAHLAKQEEVKIAAEREELKRSKTLQSQQYRGKTVQQITQ”, the “soluble on expression in E. coli” value was “soluble”.
For “GPGSMSADKVVIIGAGPTGLGAAVRLMELKHANFHLYDGGTVPGGLSRSVLDDKGFLWDMGGHVIFSHYAYFDDVMNLAISDWNTLQRESWVRCSGAWVPYPFQSNIHRLPPEVRDTCLKGIEEAEAARSVAAPEKPQNFAEYVSRHFGEGIAEVFMRPYNFKVWAVPLHLMSTEWVGERVAAVNVERIRENIQLKRDDVGWGPNATFRFPKSGGTGAIYKAVWKMIPEAHKTLGPQCRVTKVNPITKTLTMANGEAVSYDALVSTMPLDDLLLAVAAGVEEDAETASASALKAPRLREIADKMVYSSTHIIGIGVKGCPPPEMRTACWLYFPEDGIPFYRATIFSRYADTNAPEGHWSILLEVSQNVLYKPVNVDTIVEDCIAGLRTVTLLRPEDEIVSRWHHMEKKGYPIPFVGRNELLEEVQPVLRDKYQIYSRGRFGAWRYEVANQDHSLMQGVEAVGHIFYGTDEDTVHKPEKVNTRRGEMRCTWSSTAS”, the “soluble on expression in E. coli” value was “soluble”.
